This is an account of results in US20250263440A1, “CD38-BINDING AGENTS AND USES THEREOF” (PeptiDream Inc., priority 2019, published 2025).

Where two headings read alike, the source gives them in different places. Starred links: 1 amine or outer side, 2 acyl side, 3 side chain; linkers in the order of their positions; H or OH if unused. Positions of bridges follow the written chain, without caps; N, C: chain ends. Non-standard residues stand in square brackets, D forms with d. Residues, ends and D or L forms follow the SMILES beside them. No end group written: not given here. F3G = 3-guanidinophenylalanine, N=C(N)Nc1cccc(C[C@H](N[*:1])C(=O)[*:2])c1; Ala(2-NH2-4-pyridyl) = Nc1cc(C[C@H](N)C(=O)O)ccn1; Bip = N[C@@H](Cc1ccc(-c2ccccc2)cc1)C(=O)O; Arg(Me2a) = CN(C)C(=N)NCCC[C@H](N)C(=O)O; Nle(6-Ph) = N[C@@H](CCCCc1ccccc1)C(=O)O; Arg(Me2s) = CN=C(NC)NCCC[C@H](N)C(=O)O; Arg(Me) = CNC(=N)NCCC[C@H](N)C(=O)O; NMeF = CN[C@@H](Cc1ccccc1)C(=O)O; hCit = NC(=O)NCCCC[C@H](N)C(=O)O; Ahp(2) = CCCCC[C@H](N)C(=O)O

The target in test [1] is His-tagged CD38 (Homo sapiens, UniProt P28907). Put plainly: SPR assay (Biacore S200, Sensor Chip NTA, single-cycle kinetics) of SEQ ID NO.1 variants against His-tagged CD38. It is filed as binding. The following applies: for Kd: SPR Biacore S200, His-tagged CD38, calculated from ka and kd; for kon / koff: SPR Biacore S200, NTA chip, His-tagged CD38; for kon: read-out: Ka (association rate constant); for koff: read-out: Kd (dissociation rate constant). The protocol:
SPR assay was performed using Biacore S200 (Cytiva: Former GE Healthcare).
After the equilibration of Series S Sensor Chip NTA (produced by Cytiva: Former GE Healthcare) with Running Buffer (10 mM HEPES pH7.4, 150 mM NaCl, 0.05% Tween 20), followed by injection of 350 mM EDTA at a flow rate of 10 L/min for 60 seconds and […] NiCl2 at a flow rate of 10 L/min for 60 seconds, then 3 mM EDTA at a flow rate of 10 L/min for 120 seconds, sequently, to wash the sensor chip.
(§1) EDC/NHS mixture was injected at a flow rate of […] for 7 minutes to thereby activate the functional groups on sensor chip. His-tagged CD38 in Running Buffer (10 mM HEPES pH7.4, 150 mM NaCl, 0.05% Tween 20) was injected immobilized to at a flow rate of […]. For 7 minutes to immobilize the CD38 on the substrate surfaces of the sensor chip. Then Ethanolamine was injected at a flow rate of […] for 7 minutes.
(§2) 1.0 M Ethanolamine(aq.) was injected at a flow rate of 10 L/min for 420 seconds for capping. 10 mM peptides (which were synthesised described above) in DMSO were diluted to obtain 10 uM with Running Buffer, and prepared 100 nM, 50 nM, 25 nM, 10 nM, 5 nM of each peptide's solutions (Peptide Samples).
(§3) Using these Peptide Samples, kinetics of peptides against His-tagged CD38 was measured. The method adopted for sample measurement was a single-cycle kinetics method. The analysis was conducted using the evaluation software 1.1 provided with Biacore S200. A DMSO correction curve obtained by solvent correction measurements was applied for the analysis. Kinetics fitting was done on the difference data obtained by subtracting the baseline data from sample measurement data.
KD values were calculated based on the association rate constant (ka) and dissociation rate constant (kd).

For test [2], the target named is T1, Recombinant human CD38 protein (R&D Systems) (human, UniProt P28907 43-300). Put plainly: ELISA. (In general: In an ELISA, binding on a coated surface is turned into a signal by an enzyme label.)
Test [3] deals with T1, Recombinant human CD38 protein (R&D …). The test is described as follows: ELISA. This is another data set of the same source.
Test [4] has as its target T2, His-tagged CD38 (human, UniProt P28907 43-300, limits assumed).
T2 construct: The order of CD38 and tag is not known; not shown: His tag
Put plainly: SPR (Biacore S200), His-tagged CD38 immobilised, single-cycle kinetics. As for the experimental part: as §1, §2, §3

The Kd is the equilibrium constant for the complex coming apart. Turning to `CCCCC[C@@H]1NC(=O)[C@H](CCCNC(=N)NC)NC(=O)[C@H](C)NC(=O)CSC[C@@H](C(N)=O)NC(=O)[C@H](CC(=O)O)NC(=O)[C@H](CCCCc2ccccc2)NC(=O)[C@H](Cc2ccc(-c3ccccc3)cc2)NC(=O)[C@H](CC(C)C)NC(=O)[C@H](C(C)C)NC(=O)[C@H](CCC(=O)O)NC(=O)[C@H](CC(=O)O)NC(=O)[C@H](Cc2c[nH]cn2)NC(=O)[C@H](Cc2ccc(O)cc2)NC1=O` [compound 30] ({CH2CO}-A[Arg(Me)][Ahp(2)]YHDEVL[Bip][Nle(6-Ph)]DC-NH2; thioether N-13), at His-tagged CD38 [1], the dissociation constant Kd is 3.1 nM, the kon worked out at 350000 M⁻¹ s⁻¹ and the koff is 0.0011 s⁻¹. As to `CCCCC[C@@H]1NC(=O)[C@H](CCCNC(=NC)NC)NC(=O)[C@H](C)NC(=O)CSC[C@@H](C(N)=O)NC(=O)[C@H](CC(=O)O)NC(=O)[C@H](CCCCc2ccccc2)NC(=O)[C@H](Cc2ccc(-c3ccccc3)cc2)NC(=O)[C@H](CC(C)C)NC(=O)[C@H](C(C)C)NC(=O)[C@H](CCC(=O)O)NC(=O)[C@H](CC(=O)O)NC(=O)[C@H](Cc2c[nH]cn2)NC(=O)[C@H](Cc2ccc(O)cc2)NC1=O` [compound 31] ({CH2CO}-A[Arg(Me2s)][Ahp(2)]YHDEVL[Bip][Nle(6-Ph)]DC-NH2; thioether N-13), at His-tagged CD38 [1], the dissociation constant Kd was 2.6 nM, the kon stood at 480000 M⁻¹ s⁻¹ and the koff stood at 0.0012 s⁻¹. Turning to `CCCCC[C@@H]1NC(=O)[C@H](CCCNC(=N)N(C)C)NC(=O)[C@H](C)NC(=O)CSC[C@@H](C(N)=O)NC(=O)[C@H](CC(=O)O)NC(=O)[C@H](CCCCc2ccccc2)NC(=O)[C@H](Cc2ccc(-c3ccccc3)cc2)NC(=O)[C@H](CC(C)C)NC(=O)[C@H](C(C)C)NC(=O)[C@H](CCC(=O)O)NC(=O)[C@H](CC(=O)O)NC(=O)[C@H](Cc2c[nH]cn2)NC(=O)[C@H](Cc2ccc(O)cc2)NC1=O` [compound 32] ({CH2CO}-A[Arg(Me2a)][Ahp(2)]YHDEVL[Bip][Nle(6-Ph)]DC-NH2; thioether N-13), on His-tagged CD38 [1], the Kd was 5.6 nM, the kon turned out to be 250000 M⁻¹ s⁻¹ and the koff turned out to be 0.0014 s⁻¹. Taken in the same sequence, the figures for `CCCCC[C@@H]1NC(=O)[C@H](CCCCNC(N)=O)NC(=O)[C@H](C)NC(=O)CSC[C@@H](C(N)=O)NC(=O)[C@H](CC(=O)O)NC(=O)[C@H](CCCCc2ccccc2)NC(=O)[C@H](Cc2ccc(-c3ccccc3)cc2)NC(=O)[C@H](CC(C)C)NC(=O)[C@H](C(C)C)NC(=O)[C@H](CCC(=O)O)NC(=O)[C@H](CC(=O)O)NC(=O)[C@H](Cc2c[nH]cn2)NC(=O)[C@H](Cc2ccc(O)cc2)NC1=O` [compound 33] ({CH2CO}-A[hCit][Ahp(2)]YHDEVL[Bip][Nle(6-Ph)]DC-NH2; thioether N-13) were 6.7 nM, 220000 M⁻¹ s⁻¹ and 0.0015 s⁻¹. Taken in the same sequence, the figures for `CCCCC[C@@H]1NC(=O)[C@H](Cc2ccnc(N)c2)NC(=O)[C@H](C)NC(=O)CSC[C@@H](C(N)=O)NC(=O)[C@H](CC(=O)O)NC(=O)[C@H](CCCCc2ccccc2)NC(=O)[C@H](Cc2ccc(-c3ccccc3)cc2)NC(=O)[C@H](CC(C)C)NC(=O)[C@H](C(C)C)NC(=O)[C@H](CCC(=O)O)NC(=O)[C@H](CC(=O)O)NC(=O)[C@H](Cc2c[nH]cn2)NC(=O)[C@H](Cc2ccc(O)cc2)NC1=O` [compound 34] ({CH2CO}-A[Ala(2-NH2-4-pyridyl)][Ahp(2)]YHDEVL[Bip][Nle(6-Ph)]DC-NH2; thioether N-13) were 10.4 nM, 120000 M⁻¹ s⁻¹ and 0.0012 s⁻¹. On to {CH2CO}-ALH[NMeF]VLA[Bip]VWVC (thioether N-12) [I-2 analogue with Ala at position 7 (A L H MeF V L A Bph V W V C)], for which the “Binding Assay (larger values indicate stronger binding)” value (“Binding Assay” for short) in test [2] came to 0.11. Consider {CH2CO}-AAH[NMeF]VLP[Bip]VWVC (thioether N-12) [I-2 analogue with Ala at position 2 (A A H MeF V L P Bph V W V C)], for which, in test [2], the “Binding Assay” value turned out to be 0.84. On to {CH2CO}-ARAYHDGVL[Bip][Ahp(2)]DC (thioether N-13) [I-1 analogue with Ala at position 3 (A R A Y H D G V L Bph Ahp D C)], for which the “Binding Assay” value in test [3] is 0.11.

B1: Circular peptide having amino acid sequence represented by SEQ ID NO.29 (peptide)
peptide: {CH2CO}-A[F3G][Ahp(2)]YHDEVL[Bip][Ahp(2)]DC
modifications: thioether N-13; not fully specified; also: circular peptide, closure not given here
Turning to B1, the Kd with His-tagged CD38 [4] turned out to be 2 nM. Turning to {CH2CO}-AR[Ahp(2)]YHDGVL[Bip]ADC (thioether N-13) [I-1 analogue with Ala at position 11 (A R Ahp Y H D G V L Bph A D C)], in test [3], the “Binding Assay” value stood at 0.2. As for {CH2CO}-ALH[NMeF]ALP[Bip]VWVC (thioether N-12) [I-2 analogue with Ala at position 5 (A L H MeF A L P Bph V W V C)], the “Binding Assay” value in test [2] is 0.47. Consider {CH2CO}-AA[Ahp(2)]YHDGVL[Bip][Ahp(2)]DC (thioether N-13) [I-1 analogue with Ala at position 2 (A A Ahp Y H D G V L Bph Ahp D C)], for which the “Binding Assay” value in test [3] came to 0.6.

As to {CH2CO}-AR[Ahp(2)]YHDGVA[Bip][Ahp(2)]DC (thioether N-13) [I-1 analogue with Ala at position 9 (A R Ahp Y H D G V A Bph Ahp D C)], the “Binding Assay” value in test [3] turned out to be 0.08. Still for that read-out and setting: in the case of {CH2CO}-AR[Ahp(2)]YADGVL[Bip][Ahp(2)]DC (thioether N-13) [I-1 analogue with Ala at position 5 (A R Ahp Y A D G V L Bpb Ahp D C)] it was 0.28. Same read-out and setting: in the case of {CH2CO}-AR[Ahp(2)]YHAGVL[Bip][Ahp(2)]DC (thioether N-13) [I-1 analogue with Ala at position 6 (A R Ahp Y H A G V L Bph Ahp D C)] it was 0.93. As to {CH2CO}-AR[Ahp(2)]AHDGVL[Bip][Ahp(2)]DC (thioether N-13) [I-1 analogue with Ala at position 4 (A R Ahp A H D G V L Bph Ahp D C)], the “Binding Assay” value in test [3] worked out at 0.11.

With {CH2CO}-AR[Ahp(2)]YHDAVL[Bip][Ahp(2)]DC (thioether N-13) [I-1 analogue with Ala at position 7 (A R Ahp Y H D A V L Bpb Ahp D C)], the “Binding Assay” value in test [3] was determined as 1.49. As to {CH2CO}-AR[Ahp(2)]YHDGVL[Bip][Ahp(2)]AC (thioether N-13) [I-1 analogue with Ala at position 12 (A R Ahp Y H D G V L Bph Ahp A C)], in test [3], the “Binding Assay” value is 1.79. Regarding {CH2CO}-AR[Ahp(2)]YHDGAL[Bip][Ahp(2)]DC (thioether N-13) [I-1 analogue with Ala at position 8 (A R Ahp Y H D G A L Bph Ahp D C)], the “Binding Assay” value in test [3] was 0.3.

As to {CH2CO}-ALH[NMeF]VAP[Bip]VWVC (thioether N-12) [I-2 analogue with Ala at position 6 (A L H MeF V A P Bph V W V C)], the “Binding Assay” value in test [2] amounted to 0.09. Still for that read-out and setting: in the case of {CH2CO}-ALH[NMeF]VLP[Bip]AWVC (thioether N-12) [I-2 analogue with Ala at position 9 (A L H MeF V L P Bph A W V C)] it was 0.12; in that of {CH2CO}-ALA[NMeF]VLP[Bip]VWVC (thioether N-12) [I-2 analogue with Ala at position 3 (A L A MeF V L P Bph V W V C)], 0.37; in that of {CH2CO}-ALH[NMeF]VLP[Bip]VAVC (thioether N-12) [I-2 analogue with Ala at position 10 (A L H MeF V L P Bph V A V C)], 0.1.

{CH2CO}-ALH[NMeF]VLP[Bip]VWAC (thioether N-12) [I-2 analogue with Ala at position 11 (A L H MeF V L P Bph V W A C)]: the “Binding Assay” value in test [2] is 0.41. As to {CH2CO}-ALH[NMeF]VLPAVWVC (thioether N-12; also: structure as I-2) [I-2 analogue with Ala at position 8 (A L H MeF V L P A V W V C)], the “Binding Assay” value in test [2] came out at 0.09. Still for that read-out and setting: in the case of {CH2CO}-ALHAVLP[Bip]VWVC (thioether N-12) [I-2 analogue with Ala at position 4 (A L H A V L P Bph V W V C)] it was 0.1. For the molecule {CH2CO}-AR[Ahp(2)]YHDGVLA[Ahp(2)]DC (thioether N-13) [I-1 analogue with Ala at position 10 (A R Ahp Y H D G V L A Ahp D C)], the “Binding Assay” value in test [3] is 0.09.
